Test: label from the status in PepcDB records

| Sequence | protein production |
| --- | --- |
| MSRMMPARVRSEGIALYAKGFLNDPIETDFKLTAEIDGEEVSYDLDGAQDSCTCAVFQQNHRYCKHIAAIEEYLKNQDKGSQETKDKEIKGAERALFGENVAFLDAVNGETQLNFNTDQYSIEVQIEDNSQLYDYFSMDYFLYFDLKLRSKNLGRSYVIKDIPYFLRALKNYSQYSLGSLHYIDLFFDNFDEASQEFLTFLLKIDSKSDEALTKSLYIKNGRYLNIPFLFLEEAMDLVSALENYQLQITGRTVNYFTFIALDNDSEIFKFKVESQQDYIELKLYSEDYHNFYDYSLLYANNVFYKLNQEQRRLLLVLDKQFAKKSQIKFSYADKDKLAQALQQLSTLGEIEAPDHFVVRPFDAKFTFDLLEDQTISLAMTFDYGSFSIDSFHDLETLEFSRDLRKEQKIFALMERLQFAKAFNSSLNIPENLSEHFFLKILPAFQKLGQIELSPTLRNMRMDEVPEIHIDSQGGLLDISFDIPQVEDGEFANVIAKLQENAEFYISESGKFYHFNEKFDRLKAALNELDDQFVIQGSSLHVNINRSFQISKIFENIGGASFSEKFKSLYQHLTHPEEFPYEKPEHIKASLRSYQETGVRWMSMLSHYNLGGILADDMGLGKTVQAITFILSNLKKDESVLITAPASLTYNWASEFEKFTDEIDFAVIDGTKAERSKEIQEKHQIYITSYGSFLKDFEDYQDKKLNYLLLDEAQVVKNYSSKTNKSLSALNVEHTFALSGTPLENRIEEIWAIFQVVMPGFLPKREKFNKMEPSVISRLIQPFIMRRKKEDVLEELPEKMEITVYNQLADDQKVIYLAQLELMQKQVLEMDSAALSRSRIEILAGITRLRQICNTPALFMDDYKGSSGKLERLRELLAQIKDSGHRPLIFSQFTKVFPHIEKLMEEQEMTAYKLTGSTPIKDRLSMVQAFNAGSRDAFLVSLKAGGVGLNLTSADVVILVDLWWNPAVEEQAIARAHRMGQKNTVEVIRLITKGTIEEKIMEIQERKKDLIANVLEGDTVDKVLSEAEIREILGV | failed |
| MRRSRRAALAACLILAIAATPGAVLAQTVDELYASAVKARQARHFDEAVDLLRRALALKPDNADALVQLGFAELGRNDLAAARDAFSKALSLAPTYQDASFGLAEIEFRSGNLDAALPLAESVARAQPGNTDAAALVENIRKAMQAAGGEARKASVAAPRAKPRPDPVAGLMEQGRRLRTAGKLPEAEKVYRRALGLAPKNTDILVALGLIVGSSQRFDEAGHFFDRALAIKPGLLDARIGKIRMAIWQGDVPSARALVDDVLASSPDNVEALDLDAKVALLEADYTRAGQSFQRVLAIDPRNAEALVGIGDVRRAQGDDDAARQAYREALAIEPGSSDIEQRLAVPPPRKWRLDLGTEVSDLTNGLSDWTDSSAGLAYRLSPRTTISGRTRVATRFGRTDVQIEGRIDEAFSPAFSAYAFAAATPDADFLARYSIGAGASLQVMAAAKAFGPLSLNIDTRYDNFTNTNVTSVSPWVQGYIFDGRLGLSARWVHAADDIGTRADGYVLRVDLAMAQRFNLFGGYADAPEISDGTLVPTRTVFGGISWDVNDPLTLRASIAHEQRPTFDRSIFGLGLTARF | failed |
| MAKKTLILYYSWSGETKKMAEKINSEIKDSELKEVKVSEGTFDADMYKTSDIALDQIQGNKDFPEIQLDNIDYNNYDLILIGSPVWSGYPATPIKTLLDQMKNYRGEVASFFTSAGTNHKAYVSHFNEWADGLNVIGVARDDSEVDKWSK | not failed |
| MDNRKRLAYAIIQFLHGQLRHGGLSCDAQESLEVAIQCLETAFGVTLEDSDLALPQTLPEIFEAATSSKQEMPQDPRAPDRTPPSEEDSAEAERLKTEGNEQMKLENFEAAVHLYGKAIELNPANAVYFCNRAAAYSKLGNYVGAVQDCERAIGIDPGYSKAYGRMGLALSSLNKHAEAVAYYKKALELDPDNDTYKSNLKIAELKLREAPSPTGGVGSLDIAGLLNNPHFITMASSLMNSPQLQQLMSGMISGGHNPLGTPGSSPQQSDLASLIQAGQQFAQQMQQQNPEFVEQIRSQVVRSRTPSASHEEQQE | failed |
| MASGKQFMKKPIVWTIAGVDSSGLAGVHADMETFSRLNVRACSVITAVTAQNAHSIIAVEEISRDQVAAQCRALELNLKPDAIKIGMLCSTPICEEIAYFLKGYEGFVVLDPIITSSSGTNLFFPDLQQHKNNLIQLFPYITIITPNRIEAEIILNRSIYSYQDIINAASDLLSLGAKQVLLKGGHVKDNSFSQDYWTDGKESFWIANRRFPETNYRGTGCVLSSALTACLALGYSIKDAIVIAKMYVNRGIRQSIEIDKDASQLYHDGWPEDEADLPYLSPTPFIKPVPSFKKYSMGFYPIVDSSHWLEMLLPLGIKCIQLRIKEASQERLEEEIKRSVHLANQYNAALFINDHWELAIHYGAAGVHLGQEDLEKADVDRINRSGLFLGISTHCYYEVARAHALNPSYVACGPIYETTSKIMPFQAQGIARLERWRKTLRYPLVAIGGITLKNLSDVLKTKIDGVSVISAITKASAPLVAAKQFLTQMNESHNE | failed |

Reference: a protein production outcome set (Wang et al. 2014)
